Source: article PMC5066616, “Rapid dynamics of general transcription factor TFIIB binding during preinitiation complex assembly revealed by single-molecule analysis”

Tests used:
[1] = molecular target: TFIID–TFIIA complex on promoter DNA (TFIID–TFIIA–promoter complex) (human) (UniProt P20226); assay: single-molecule fluorescence colocalisation (TIRF); supercore promoter DNA and a mutant control template (-63 to +90) immobilised via biotin–streptavidin; dye-labelled factors injected with unlabelled ones; a signal within ∼40 nm of a DNA position counted as binding; 2.5 Hz; 11.3 mM HEPES pH 7.9, 5.6 mM MgCl2, 45 mM KCl; the target protein is DNA-bound
Chain of TFIID–TFIIA complex on promoter DNA (TFIID–TFIIA–promoter complex) (human) (P20226 whole entry, looked up, one chain of several): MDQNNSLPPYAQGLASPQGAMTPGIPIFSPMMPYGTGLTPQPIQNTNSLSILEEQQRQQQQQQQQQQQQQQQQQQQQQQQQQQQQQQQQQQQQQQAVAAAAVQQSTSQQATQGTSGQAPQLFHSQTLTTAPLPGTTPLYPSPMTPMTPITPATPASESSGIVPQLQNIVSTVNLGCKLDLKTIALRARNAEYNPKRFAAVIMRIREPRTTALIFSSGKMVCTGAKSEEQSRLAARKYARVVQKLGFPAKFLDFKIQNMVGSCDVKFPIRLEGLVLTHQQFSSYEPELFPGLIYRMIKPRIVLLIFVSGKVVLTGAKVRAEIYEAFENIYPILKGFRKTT

[2] = molecular target: T1, TBP;TFIIA;TFIIB full length (human;human;human, UniProt P20226;P52655;P52657;Q00403 1-339;1-376;1-109;1-316, ||); assay: EMSA; 10 nM DNA; similar efficiency to supercore; Single-molecule: 11.3 mM HEPES pH 7.9, 5.6 mM MgCl2, 45 mM KCl, 45 uM EDTA, 4.5% glycerol, 3.6 ng/ul tRNA, 0.1 ng/ul poly(dG:dC), 0.09% Tween 20, 0.0045% NP40; details: protein: recombinant;recombinant;recombinant; tags: N-terminal 6xHis-HaloTag; TMR; GST removed by Ulp1;N-terminal tag incl. thrombin site, Ni-NTA purified; Alexa647 or TMR; copies: 1;1;1;1; label: 5' Cy3 or Atto633; 5' biotin; blunt
T1 sequence (P20226 whole entry, chain 1 of 4): as the sequence (P20226 whole entry, looked up, one chain of several) above
T1 sequence (P52655 whole entry, chain 2 of 4): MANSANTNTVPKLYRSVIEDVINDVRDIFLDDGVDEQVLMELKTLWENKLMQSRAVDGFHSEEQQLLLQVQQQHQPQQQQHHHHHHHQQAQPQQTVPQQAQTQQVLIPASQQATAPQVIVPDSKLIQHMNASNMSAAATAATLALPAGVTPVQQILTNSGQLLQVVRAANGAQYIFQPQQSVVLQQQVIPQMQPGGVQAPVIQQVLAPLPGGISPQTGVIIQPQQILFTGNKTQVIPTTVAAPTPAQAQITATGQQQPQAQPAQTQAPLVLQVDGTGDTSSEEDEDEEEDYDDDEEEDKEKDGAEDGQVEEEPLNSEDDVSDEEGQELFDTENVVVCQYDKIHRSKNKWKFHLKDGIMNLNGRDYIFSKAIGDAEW
T1 sequence (P52657 whole entry, chain 3 of 4): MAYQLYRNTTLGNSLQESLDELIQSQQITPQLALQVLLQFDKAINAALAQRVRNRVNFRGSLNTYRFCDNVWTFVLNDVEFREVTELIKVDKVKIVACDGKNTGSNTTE
T1 sequence (Q00403 whole entry, chain 4 of 4): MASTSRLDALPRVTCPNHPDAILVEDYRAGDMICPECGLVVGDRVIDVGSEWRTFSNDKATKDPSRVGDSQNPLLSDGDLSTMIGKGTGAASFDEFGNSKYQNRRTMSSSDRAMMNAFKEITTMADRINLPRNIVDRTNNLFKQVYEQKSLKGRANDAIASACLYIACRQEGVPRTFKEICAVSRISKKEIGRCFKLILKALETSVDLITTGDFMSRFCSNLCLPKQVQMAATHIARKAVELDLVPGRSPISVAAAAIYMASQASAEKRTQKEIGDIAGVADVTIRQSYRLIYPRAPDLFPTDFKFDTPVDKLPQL

[3] = molecular target: T1, TBP;TFIIA;TFIIB full length; assay: EMSA; 10 nM DNA; Single-molecule: 11.3 mM HEPES pH 7.9, 5.6 mM MgCl2, 45 mM KCl, 45 uM EDTA, 4.5% glycerol, 3.6 ng/ul tRNA, 0.1 ng/ul poly(dG:dC), 0.09% Tween 20, 0.0045% NP40; details: protein: recombinant;recombinant;recombinant; tags: N-terminal 6xHis-HaloTag; TMR; GST removed by Ulp1;N-terminal tag incl. thrombin site, Ni-NTA purified; Alexa647 or TMR; copies: 1;1;1;1; label: 5' Cy3 or Atto633; 5' biotin; blunt

“TFIIB, full-length (FL) (from UniProt Q00403 1-316) (natural protein)” was tested, and the DNA-binding efficiency (percent of supercore templates colocalising with TFIIB) [1] was 30%, the average residence time [1] was 1.5 s and the average waiting time after TFIIA arrival (∼8 nM TFIIB) [1] was 3 s.

B1: Mutant control template, EMSA (dsDNA)
DNA 1: CATAACCATATGTATCATACACATACGGTACACGTATGTGGGGGTGGGGGCGCGTTCGTCCTGTGACACGATCGAACACTCGAGCCGAGCAGCATAGCCTACGGACCGCAAGCTTCCCTATCCCTTATCTTAACCACTCCAATTACATACACC
DNA 2: GGTGTATGTAATTGGAGTGGTTAAGATAAGGGATAGGGAAGCTTGCGGTCCGTAGGCTATGCTGCTCGGCTCGAGTGTTCGATCGTGTCACAGGACGAACGCGCCCCCACCCCCACATACGTGTACCGTATGTGTATGATACATATGGTTATG
B1: binds [2].

B2: Supercore promoter template, EMSA (dsDNA)
DNA 1: CATAACCATATGTATCATACACATACGGTACTTATATAAGGGGGTGGGGGCGCGTTCGTCCTCAGTCGCGATCGAACACTCGAGCCGAGCAGACGTGCCTACGGACCGCAAGCTTCCCTATCCCTTATCTTAACCACTCCAATTACATACACC
DNA 2: GGTGTATGTAATTGGAGTGGTTAAGATAAGGGATAGGGAAGCTTGCGGTCCGTAGGCACGTCTGCTCGGCTCGAGTGTTCGATCGCGACTGAGGACGAACGCGCCCCCACCCCCTTATATAAGTACCGTATGTGTATGATACATATGGTTATG
B2: binds [3].
